According to publication doi:10.1101/2020.07.24.212647 (bioRxiv, 2020):
Read-outs that look alike come from different tables or passages of the source.

Key:
[1] = target: Corynebacterium mustelae E2p catalytic domain (CmE2p_CD) (Corynebacterium mustelae); test: crystal structure
AUC [2] = target: the molecule itself; test: AUC
AUC [3] = target: the molecule itself; test: AUC; remark: listed apart in the source
crystal structure = target: the molecule itself; test: crystal structure

## Corynebacterium mustelae E2p catalytic domain (CmE2p_CD) (domain or fragment)
[1]
  stoichiometry N: 3

B1: C. glutamicum E2p catalytic domain (CgE2p_CD) (domain or fragment)
chain: LRGTTQKVNRIREITAMKTVEALQISAQLTQLHEVDMTRVAELRKKNKPAFIEKHGVNLTYLPFFVKAVVEALVSHPNVNASFNAKTKEMTYHSSVNLSIAVDTPAGLLTPVIHDAQDLSIPEIAKAIVDLADRSRNNKLKPNDLSGGTFTITNIGSEGALSDTPILVPPQAGILGTGAIVKRPVVITEDGIDSIAIRQMVFLPLTYDHQVVDGADAGRFLTTIKDRLETANFEGDLQL
AUC [2]
  stoichiometry N: 3

B2: M. tuberculosis E2b, full-length (MtE2b_FL) (enzyme)
chain: MSGEDSIRSFPVPDLGEGLQEVTVTCWSVAVGDDVEINQTLCSVETAKAEVEIPSPYAGRIVELGGAEGDVLKVGAELVRIDTGPTAVAQPNGEGAVPTLVGYGADTAIETSRRTSRPLAAPVVRKLAKELAVDLAALQRGSGAGGVITRADVLAAARGGVGAGPDVRPVHGVHARMAEKMTLSHKEIPTAKASVEVICAELLRLRDRFVSAAPEITPFALTLRLLVIALKHNVILNSTWVDSGEGPQVHVHRGVHLGFGAATERGLLVPVVTDAQDKNTRELASRVAELITGAREGTLTPAELRGSTFTVSNFGALGVDDGVPVINHPEAAILGLGAIKPRPVVVGGEVVARPTMTLTCVFDHRVVDGAQVAQFMCELRDLIESPETALLDL
AUC [3]
  stoichiometry N: 24

B3: C. glutamicum E2p catalytic core and peripheral subunit binding domain (CgE2p-ΔLBDs) (domain or fragment)
chain: YVTPLVRKLAEKHGVDLNTVTGTGIGGRIRKQDVLAAANGEAAPAEAAAPVSAWSTKSVDPEKAKLRGTTQKVNRIREITAMKTVEALQISAQLTQLHEVDMTRVAELRKKNKPAFIEKHGVNLTYLPFFVKAVVEALVSHPNVNASFNAKTKEMTYHSSVNLSIAVDTPAGLLTPVIHDAQDLSIPEIAKAIVDLADRSRNNKLKPNDLSGGTFTITNIGSEGALSDTPILVPPQAGILGTGAIVKRPVVITEDGIDSIAIRQMVFLPLTYDHQVVDGADAGRFLTTIKDRLETANFEGDLQL
Crystal structure
  binding result: binds

B4: C. glutamicum E2p, full-length (CgE2p_FL) (enzyme)
chain: MAFSVEMPELGESVTEGTITQWLKSVGDTVEVDEPLLEVSTDKVDTEIPSPVAGVILEIKAEEDDTVDVGGVIAIIGDADETPANEAPADEAPAPAEEEEPVKEEPKKEAAPEAPAATGAATDVEMPELGESVTEGTITQWLKAVGDTVEVDEPLLEVSTDKVDTEIPSPVAGTIVEILADEDDTVDVGAVIARIGDANAAAAPAEEEAAPAEEEEPVKEEPKKEAAPEAPAATGAATDVEMPELGESVTEGTITQWLKAVGDTVEVDEPLLEVSTDKVDTEIPSPVAGTIVEILADEDDTVDVGAVIARIGDANAAAAPAEEEAAPAEEEEPVKEEPKKEEPKKEEPKKEAATTPAAASATVSASGDNVPYVTPLVRKLAEKHGVDLNTVTGTGIGGRIRKQDVLAAANGEAAPAEAAAPVSAWSTKSVDPEKAKLRGTTQKVNRIREITAMKTVEALQISAQLTQLHEVDMTRVAELRKKNKPAFIEKHGVNLTYLPFFVKAVVEALVSHPNVNASFNAKTKEMTYHSSVNLSIAVDTPAGLLTPVIHDAQDLSIPEIAKAIVDLADRSRNNKLKPNDLSGGTFTITNIGSEGALSDTPILVPPQAGILGTGAIVKRPVVITEDGIDSIAIRQMVFLPLTYDHQVVDGADAGRFLTTIKDRLETANFEGDLQL
AUC [2]
  stoichiometry N: 3
